Laboratory results as given in patent US20180155415A1 (published 2018).

Tests used:
[1] = target: T1, mouse NGF (m-NGF, Alomone) (mouse, UniProt P01139 122-241); assay: SPR (BIAcore 2000), antibody immobilized by amine coupling, m-NGF injected
T1 construct: mature
Description: For m-NGF binding, the immobilization of the antibody was of 3000 resonance units (RU) in the experiment of panel A and of 6000 RU in the experiment of panel B. The injected concentrations of the m-NGF are indicated on top of each curve.
(§1) Experiments were performed on CMS5 chips with amine coupling, using a BIAcore 2000 machine. Coupling was performed with a specific kit purchased at BIAcore and the coupling reaction was carried out according to manufacturer's instructions.
(§2) Anti-NGF antibodies were immobilized on chip, while mouse NGF (m-NGF, Alomone) or recombinant mouse proNGF (rm-proNGF) were injected at decreasing concentrations to obtain binding curves.

[2] = target: T2, recombinant mouse proNGF (rm-proNGF) (mouse, UniProt P01139 19-241); assay: SPR (BIAcore 2000), antibody immobilized (3000 RU), rm-proNGF injected, kinetic analysis
T2 construct: Pro-form of NGF
Description: For rm-proNGF binding (panel C), the immobilization of the antibody was of 3000 RU.
as §1, §2

T2 sequence (P01139 19-241): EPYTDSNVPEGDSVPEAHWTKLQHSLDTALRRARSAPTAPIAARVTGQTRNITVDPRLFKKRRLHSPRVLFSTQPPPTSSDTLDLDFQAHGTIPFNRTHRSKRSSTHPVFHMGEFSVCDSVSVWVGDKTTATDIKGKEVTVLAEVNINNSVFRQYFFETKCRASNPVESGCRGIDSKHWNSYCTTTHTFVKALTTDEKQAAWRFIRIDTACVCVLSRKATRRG
T1 sequence (P01139 122-241): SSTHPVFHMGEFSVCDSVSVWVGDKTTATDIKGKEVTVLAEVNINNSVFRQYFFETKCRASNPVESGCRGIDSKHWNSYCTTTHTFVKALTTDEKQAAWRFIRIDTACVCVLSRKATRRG

B1: αD11 anti-NGF antibody (antibody, V domains shown)
VH: QVQLKESGPGLVQPSQTLSLTCTVSGFSLTNNNVNWVRQATGRGLEWMGGVWAGGATDYNSALKSRLTITRDTSKSQVFLKMHSLQSEDTATYYCARDGGYSSSTLYAMDAWGQGTTVTVSA
VL: DIQMTQSPASLSASLGETVTIECRASEDIYNALAWYQQKPGKSPQLLIYNTDTLHTGVPSRFSGSGSGTQYSLKINSLQSEDVASYFCQHYFHYPRTFGGGTKLELK
notes: Rat monoclonal antibody purified from hybridoma supernatant and immobilized on the chip; The tie to αD11 is indirect; also called alphaD11; aD11
[1]
  Ka: 3.55e+11 M⁻¹
  Kd: 0.00281 nM
[2]
  Ka: 1.2e+09 M⁻¹
  Kd: 1.9 nM
